This data set concerns the molecule itself. The experiment in a line: self-assembly into a macroscopic membrane in DMEM; phase-contrast microscopy and Congo Red staining. The protocol:
The peptides were initially dissolved in water (5 mg/ml) or in 23% acetonitrile (10 mg/ml). A volume of 5-10 microliters of the dissolved peptides were applied to the DMEM medium, PBS or water. The formation of the membrane was first observed under a phase-contrast microscope and then, by the naked eye after staining with Congo Red.

With Ac-AEAKAEAEAKAK-NH2 [EAK12 peptide, Ac-HN-AEAKAEAEAKAK-CONH2], the binding result is given as “binds”.

On to Ac-AEAEAKAKAEAEAKAK-NH2 (Self-assembling amphiphilic peptide) [EAK16 peptide, Ac-HN-AEAEAKAKAEAEAKAK-CONH2], for which the binding result is given as “binds”.

(Values after patent US20070190603A1 (MIT, published 2007).)
